Consider 24 sequences from the supplement of paper PMC9170038.

The data set has as its system MS2 coat protein. Nature of the data set: apparent KD of MS2 coat protein; designed switch direction (-1 OFF switch, 1 ON switch): -1; higher = weaker reporter binding. The method, boiled down:
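Designed RNA switches were transcribed on Illumina chips by stalled E. coli RNA polymerase and titrated with SNAP-549-labelled MS2 coat protein from 0.7 or 1.5 nM, doubling to 3 µM. Step length ran from 0.8–1.5 h at the lowest concentration to 10–20 min at the highest. The apparent KD is the median over clusters for each design, from curve-fitted normalised cluster fluorescence.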

Setting [1] is: input ligand: microRNA oligo, concentration not stated.
The mark [2] stands for this setting: Eterna round: R95, input ligand: microRNA oligo, concentration not stated.
Setting [3] is: Eterna round: R95, input ligand: FMN 200 uM.
Setting [4] is: Eterna round: R95, input ligand: none.

With “ACAUGAGGAUCACCCAUGUGACCACAAUGGCUGAUGUAACAACAGGAUAUGCGUGAAUAUCUAACGCAGAAGGGUUAUGACUGG [Deportation 60 - Jieux - Exclusion NG 3] (Eterna round: R96, puzzle: Exclusion NG 3)”, the “apparent KD of MS2 coat protein” value came to 73.5 nM (input ligand: FMN 200 uM), 71.6 nM under setting [1] and 65.4 nM (input ligand: none).
In the case of “ACAUGAGGAUCACCCAUGUUUUUCGGGUACUCUUUUUACAGCAAGGAUAUGCAUGUUUUUUUUACGCAGAAGGUGCUUUACGUC [JR_ExcNG3_Sub067] (Eterna round: R96, puzzle: Exclusion NG 3)”, the “apparent KD of MS2 coat protein” value under setting [1] was determined as 77.7 nM.
On to “ACAUGUCCUGAGGAUAUCAAAGUCCUCCCGACAUGAGAAGGCAGGACAUGAGGAUCACCCAUGUGGAGCAGGGA [Aarorbeti] (Eterna round: R97, puzzle: Exclusion 6)”, for which the “apparent KD of MS2 coat protein” value by setting is: (input ligand: FMN 200 uM) 420 nM; (input ligand: none) 111 nM.
In the case of “ACAUGUUAUGUAGGAUAUUGGACACAUGAGGAUCACCCAUGUAACCGGAGGCUUUACUAUGAGUUCGAGAAGGGUAUGAACAUG [Ex NG2 #67] (Eterna round: R96, puzzle: Exclusion NG 2)”, the “apparent KD of MS2 coat protein” value (input ligand: FMN 200 uM) is 77.5 nM, the “apparent KD of MS2 coat protein” value under setting [1] came out at 44.3 nM and the “apparent KD of MS2 coat protein” value (input ligand: none) amounted to 49.1 nM.
On the same counts, the results for “ACAUGUUAUUUAGGAUAUUGGACACAUGAGGAUCACCCAUGUACCCGGAGGCUUUACUAUGAGUUCGAGAAGGAGAUGUACAUG [Ex NG2 #70] (Eterna round: R96, puzzle: Exclusion NG 2)” are 89.3 nM, 59.3 nM and 75.6 nM.
Take “ACAUGUUGUCCAUGAUAUUACAUGAGGAUCACCCAUGUUAUGGCGAUUUUGAUGUGUAAGUUUGUUGCUCGUCUUAU [JR_STOV1_Sub061] (Eterna round: R97, puzzle: Sensor, turn-off variant 1)”: the “apparent KD of MS2 coat protein” value runs as follows: (input ligand: FMN 200 uM) 19.2 nM; (input ligand: none) 20.6 nM.
Turning to “ACAUGUUGUGCAGGAUAUGGGACACAUGAGGAUCACCCAUGUGGCUACAUGUCAUACCAAGCGUCUCAGAAGGGUAUUAACAUG [Ex NG2 #37] (Eterna round: R96, puzzle: Exclusion NG 2)”, the “apparent KD of MS2 coat protein” value (input ligand: FMN 200 uM) is 31.9 nM, the “apparent KD of MS2 coat protein” value under setting [1] was determined as 24.8 nM and the “apparent KD of MS2 coat protein” value (input ligand: none) worked out at 23.2 nM.
For the sequence “ACAUUGGUAGUGAGGAUAUCGGUGUGAUAGAAUGCCGAGAAGGCACAUGAGGAUCACCCAUGUAAGAUUGGGCA [JR_BMEx4_Sub043] (Eterna round: R97, puzzle: Brourd's mod of Exclusion 4)”, the “apparent KD of MS2 coat protein” value amounted to 299 nM (input ligand: FMN 200 uM) and 186 nM (input ligand: none).
In the case of “ACCGUGCAAGGAUAUCGUUACCUCGACAUGAGGAUCACCCAUGUGGCCAUAUAGCGAUUGCGAGAAGGUGCGGGUA [Aatveti] (puzzle: Exclusion 5)”, the “apparent KD of MS2 coat protein” value under setting [2] was found to be 85.2 nM.
As to “ACCUCACAUGAGGAUCACCCAUGUUAGGAUAUCUCGAUGCUCCGCGGGCGGGAGCAUCAGAGAAGGAACGUGCA [Geusarvees] (puzzle: Exclusion 1)”, the “apparent KD of MS2 coat protein” value under setting [2] came to 18.3 nM.
“ACCUCUGAGGAGGAUAUACAGUGCGAAAGGACAGUAGAAGGCUUCACAUGAGGAUCACCCAUGUCGAAUAGUGA [EX6 #79] (Eterna round: R97, puzzle: Exclusion 6)”: the “apparent KD of MS2 coat protein” value came to 86.1 nM (input ligand: FMN 200 uM) and 58.7 nM (input ligand: none).
As for “ACGAAACAUGAGGAUCACCCAUGUGAGGAUAUUAUGUUAUAAUACAUACUAUACAUAUUAAGAAGGCACAUUGG [Design #12] (Eterna round: R97, puzzle: Exclusion 1)”, the “apparent KD of MS2 coat protein” value is, setting by setting: (input ligand: FMN 200 uM) 138 nM; (input ligand: none) 74.6 nM.
With “ACGAAAGCAAACAGGUGAAACAUGAGGAUCACCCAUGUCCUCAUUUGCUCGUCUUAUAAGCUAUGCGAAAGCAUAGC [Mat - Sensor v3 - turn-off var 1 - Eli Mod - D53] (puzzle: Sensor v3, turn-off variant 1)”, the “apparent KD of MS2 coat protein” value reads like this: under setting [3], 60.4 nM; under setting [2], 1270 nM; under setting [4], 72.4 nM.
“ACGAGCUUUUUGCUCGUUUACAUGAGGAUCACCCAUGUGUCUUCGCGCCCGGGCCCGGGCGGGCCCGGGCCCGGGCG [-52.9, -56.9, A 10%] (Eterna round: R97, puzzle: Sensor, turn-off variant 1)”: the “apparent KD of MS2 coat protein” value runs as follows: (input ligand: FMN 200 uM) 50.6 nM; (input ligand: none) 57.6 nM.
As to “ACGAGGUCAGGAUAUACAGAGAGAAGGAGUUGGUUGAGGUAACAUGAGGAUCACCCAUGUAGAAGGGACUGGGA [JR_Exclu2_Sub081] (puzzle: Exclusion 2)”, the “apparent KD of MS2 coat protein” value under setting [3] came out at 48 nM, the “apparent KD of MS2 coat protein” value under setting [2] was 31.2 nM and the “apparent KD of MS2 coat protein” value under setting [4] amounted to 34.9 nM.
Consider “ACGAUGACUGAAAGAAGUCAAAAGACAUGAGGAUCACCCAUGUAGGAUAUGGCUACGAAAAGUAGUCAGAAGGACAAGUCAUCA [Omei Exc(NG) 3 Av4] (Eterna round: R96, puzzle: Exclusion NG 3)”, for which the “apparent KD of MS2 coat protein” value (input ligand: FMN 200 uM) was found to be 10.1 nM, the “apparent KD of MS2 coat protein” value under setting [1] was found to be 9.69 nM and the “apparent KD of MS2 coat protein” value (input ligand: none) was found to be 14.1 nM.
With “ACGCAACAUGAGGAUCACCCAUGUGAGGAUAUGUAAAUAGUAAACAAAUAGGAAAUGAACAGAAGGCACACCGG [JR_Exclusion1_Sub005] (puzzle: Exclusion 1)”, the “apparent KD of MS2 coat protein” value under setting [2] was determined as 32.5 nM.
Consider “ACGCAUUGCCUUUGGUAGUGCGUAACAUGAGGAUCACCCAUGUAGGAUAUGGUAGGCUUUGCUUACCAGAAGGACAUUAUAAUC [Mat - Exclusion NG 3 - Mod of JL - D8] (Eterna round: R96, puzzle: Exclusion NG 3)”, for which the “apparent KD of MS2 coat protein” value is, setting by setting: (input ligand: FMN 200 uM) 65 nM; under setting [1], 18.5 nM; (input ligand: none) 25.1 nM.
For the sequence “ACGCAUUGCCUUUGGUAGUGCGUUACAUGAGGAUCACCCAUGUAGGAUAUGGUAGGCUUUGCUUACCAGAAGGACAUGAUAAUU [JL ENG3 1.02] (Eterna round: R96, puzzle: Exclusion NG 3)”, the “apparent KD of MS2 coat protein” value (input ligand: FMN 200 uM) turned out to be 195 nM, the “apparent KD of MS2 coat protein” value under setting [1] came to 29.1 nM and the “apparent KD of MS2 coat protein” value (input ligand: none) was determined as 37.4 nM.
“ACGCCAGGAGGAUAUGCAAUAAGUAACAUGAGGAUCACCCAUGUUCGGGCGAUGCUCGUGGCAGAAGGCCUAGCCG [Edteonra] (Eterna round: R97, puzzle: Exclusion 5)”: the “apparent KD of MS2 coat protein” value by setting is: (input ligand: FMN 200 uM) 329 nM; (input ligand: none) 36.1 nM.
Regarding “ACGCCUCCUGUCAGGAUAUGCAUCGGGCUUCCGCAGCAGAAGGGACAUGAGGAUCACCCAUGUCAAAUAAAAUC [Onsoqule] (puzzle: Brourd's mod of Exclusion 4)”, under setting [2], the “apparent KD of MS2 coat protein” value amounted to 16.3 nM.
Regarding “ACGGACCGAGGAUAUGCAUGCAGGAUACCUGGGUCCAAUGGACAUGAGGAUCACCCAUGUAGAAGGCGGAAAUA [Arinisra] (Eterna round: R97, puzzle: Exclusion 2)”, the “apparent KD of MS2 coat protein” value (input ligand: FMN 200 uM) is 86.3 nM and the “apparent KD of MS2 coat protein” value (input ligand: none) worked out at 31.4 nM.
“ACGGUCAUAGGAUAUACUGGGACAGCGCUAAGGCGCCCUUGACAUGAGGAUCACCCAUGUAGAAGGAUGUCCGA [EX2 C.1] (Eterna round: R97, puzzle: Exclusion 2)”: the “apparent KD of MS2 coat protein” value by setting is: (input ligand: FMN 200 uM) 152 nM; (input ligand: none) 22.6 nM.
With “ACGUAUAGAGGAUAUAGUGAAUAUUACAUGAGGAUCACCCAUGUUCUUCAAAGCAUAUUCCUAGAAGGCUGAUGAA [EX-5 Malc#13] (puzzle: Exclusion 5)”, under setting [2], the “apparent KD of MS2 coat protein” value amounted to 47.5 nM.
